According to patent US20070224186A1:
Where no end group is shown, it is not given here.

Target: EG(2)-HepN
Experiment: competitive ELISA with EG(2)-HepN; competitor N-terminally biotinylated hepcidin-(28-47)

detection limit of the ELISA: 0.1 ng/well
Binder: PQQTGQLAELQPQDRAGARA (not fully specified (C-terminus)) [hepcidin-(28-47)]
